Test results from US20240383978A1 (NOVAROCK BIOTHERAPEUTICS, published 2024).
One block for each binder: values may come before it.

Experiments:
[1] = target: human CD137 on the cell surface (human, UniProt Q07011 24-255); test: cell-based or functional assay
human Nectin-4 = target: T1, human Nectin-4 (human, UniProt Q96NY8 32-510); test: immunofluorescence cell binding, CHO cells expressing human Nectin 4, 10 µg/ml per the text
T1 construct: Expressed on CHO cells; also called CHO-Nectin 4
T1 sequence: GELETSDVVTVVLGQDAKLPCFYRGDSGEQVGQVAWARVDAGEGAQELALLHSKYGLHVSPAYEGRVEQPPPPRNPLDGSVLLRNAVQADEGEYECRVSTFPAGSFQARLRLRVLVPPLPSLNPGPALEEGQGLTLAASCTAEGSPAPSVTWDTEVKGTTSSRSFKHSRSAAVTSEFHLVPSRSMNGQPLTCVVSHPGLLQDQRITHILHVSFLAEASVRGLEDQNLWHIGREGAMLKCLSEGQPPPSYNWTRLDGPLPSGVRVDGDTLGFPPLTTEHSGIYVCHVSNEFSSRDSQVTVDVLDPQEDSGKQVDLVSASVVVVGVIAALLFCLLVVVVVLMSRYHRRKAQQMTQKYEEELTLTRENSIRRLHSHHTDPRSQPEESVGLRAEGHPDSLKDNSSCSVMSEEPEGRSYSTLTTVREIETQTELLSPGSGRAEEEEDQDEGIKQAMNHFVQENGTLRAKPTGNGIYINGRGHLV
Method: Bispecific Nectin-4/CD137 binding proteins were generated, produced, and purified as described in Example 4. To examine the binding activity of the BsAbs 1925Ab1, 1925Ab2 and 1925Ab3 to Nectin 4, CHO cells expressing human Nectin 4 were used in an immunofluorescence binding assay. The cells were cultured in F12K media with 10% FBS. On the day of the experiment, the cells were collected, washed, and stained with the binding proteins at 4° C. for 2 hours, followed by fixing cells with paraformaldehyde for 15 minutes at room temperature. The disclosed antibodies 1925Ab1, 1925Ab2 and 1925Ab3 are bispecific antibodies that bind to both Nectin-4 and CD137. Monospecific antibody 1925Ab4 (parental murine antibody) only binds to Nectin-4 and is used as a control antibody. The fixed cells were then washed with PBS three times, followed by staining the cells at room temperature for 1 hour with Alexa Fluor® 488 Goat Anti-Human IgG antibody (Invitrogen, Cat #: A-11013) for detection. The binding signal was assessed by quantifying the fluorescence intensity using iQue Screener PLUS (Sartorius, MI).

Chain of human CD137 on the cell surface (Q07011 24-255): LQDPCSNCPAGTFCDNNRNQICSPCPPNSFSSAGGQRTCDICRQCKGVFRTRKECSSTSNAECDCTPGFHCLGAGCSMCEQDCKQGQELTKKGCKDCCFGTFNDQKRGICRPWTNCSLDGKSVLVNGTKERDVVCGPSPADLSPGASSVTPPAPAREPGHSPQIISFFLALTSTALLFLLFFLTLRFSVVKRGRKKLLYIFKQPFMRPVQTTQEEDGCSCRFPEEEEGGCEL

B1: 1912Ab3 (bispecific antibody, human IgG1, kappa, L234A L235A)
heavy: not shown
light: DIQLTQSPSFLSASVGDRVTITCRASQGISSYLAWYQQKPGKAPKLLIYAASTLQSGVPSRFSGSGSGTEFTLAVSSLQPEDFATYYCQQLNSYPYTFGQGTKLEIKRTVAAPSVFIFPPSDEQLKSGTASVVCLLNNFYPREAKVQWKVDNALQSGNSQESVTEQDSKDSTYSLSSTLTLSKADYEKHKVYACEVTHQGLSSPVTKSFNRGEC
EC50 of CD137 signaling (NFKB-Luc, Jurkat reporter cells co-cultured with NEC8 WT cells) [1]: 0.2 nM

B2: 1901Ab2 (bispecific antibody, human IgG1, kappa, L234A L235A)
heavy: not shown
light: DIQLTQSPSFLSASVGDRVPITCRASQGISNFLAWYQQKPGKAPELLIHSASTLQSGVPSRFSGSGSGTEFTLTISNLQPQDFATYYCQQVNSYPLTFGGGTKVEIKRTVAAPSVFIFPPSDEQLKSGTASVVCLLNNFYPREAKVQWKVDNALQSGNSQESVTEQDSKDSTYSLSSTLTLSKADYEKHKVYACEVTHQGLSSPVTKSFNRGEC
EC50 of CD137 signaling (NFKB-luc, Jurkat reporter cells co-cultured with NUGC4 cells) [1]: 0.047 nM

B3: 1901Ab3 (bispecific antibody, human IgG1, kappa, L234A L235A)
heavy: not shown
light: DIQLTQSPSFLSASVGDRVPITCRASQGISNFLAWYQQKPGKAPELLIHSASTLQSGVPSRFSGSGSGTEFTLTISNLQPQDFATYYCQQVNSYPLTFGGGTKVEIKRTVAAPSVFIFPPSDEQLKSGTASVVCLLNNFYPREAKVQWKVDNALQSGNSQESVTEQDSKDSTYSLSSTLTLSKADYEKHKVYACEVTHQGLSSPVTKSFNRGECGGGGSGGGGSGGGGSQVQLVESGGGVVQPGRSLRLSCAASGFTFSNYGMHWVRQAPGKCLEWVAIIWYDGINKYYADSVKGRFTISRDNSKNTLYLQMNSLKAEDTAVYYCARDQDYDILTGYYKEDYFDFWGQGTLVTVSSGGGGSGGGGSGGGGSGGGGSSYELTQPPSVSVSPGQTARITCSGDALPKKYAYWYQQKSGQAPVLVIYEDSKRPSGIPERFSGSSSGTMATLTISGAQVEDEADYYCYSTDSSGNRVFGCGTKLTVL
EC50 of CD137 signaling (NFKB-luc, Jurkat reporter cells co-cultured with NUGC4 cells) [1]: 0.1 nM

B4: 1912Ab4 (bispecific antibody)
heavy: not shown
light: AIQLTQSPSSLSASVGDRVTITCRASQGINSWLAWYQQKPEKAPKSLIYAASSLQSGVPSRFSGSGSGTDFTLTISSLQPEDFATYYCQQYNFYPYTFGQGTKLEIIRTVAAPSVFIFPPSDEQLKSGTASVVCLLNNFYPREAKVQWKVDNALQSGNSQESVTEQDSKDSTYSLSSTLTLSKADYEKHKVYACEVTHQGLSSPVTKSFNRGEC
EC50 of CD137 signaling (NFKB-Luc, Jurkat reporter cells co-cultured with NEC8 WT cells) [1]: 0.18 nM

Further lines, results first:

EC50 of CD137 signaling (NFKB-luc, Jurkat reporter cells with target cells) [1]: 0.027 nM
B5: 1925Ab1 (bispecific antibody, human IgG1, kappa, L234A L235A)
heavy: not shown
light: DIQMTQSPSSLSASVGDRVTITCKASQSVNNDVAWYQQKPGKAPKLLIYYASNRDTGVPSRFSGSGSGTDFTLTISSLQPEDFATYYCQQDYSSPYTFGQGTKLEIKRTVAAPSVFIFPPSDEQLKSGTASVVCLLNNFYPREAKVQWKVDNALQSGNSQESVTEQDSKDSTYSLSSTLTLSKADYEKHKVYACEVTHQGLSSPVTKSFNRGEC

EC50 of CD137 signaling (NFKB-luc, Jurkat reporter cells with target cells) [1]: 0.08 nM
B6: 1925Ab2 (bispecific antibody, human IgG1, kappa)
heavy: not shown
light: DIQMTQSPSSLSASVGDRVTITCKASQSVNNDVAWYQQKPGKAPKLLIYYASNRDTGVPSRFSGSGSGTDFTLTISSLQPEDFATYYCQQDYSSPYTFGQGTKLEIKRTVAAPSVFIFPPSDEQLKSGTASVVCLLNNFYPREAKVQWKVDNALQSGNSQESVTEQDSKDSTYSLSSTLTLSKADYEKHKVYACEVTHQGLSSPVTKSFNRGECGGGGSGGGGSGGGGSQVQLVESGGGVVQPGRSLRLSCAASGFTFSNYGMHWVRQAPGKCLEWVAIIWYDGINKYYADSVKGRFTISRDNSKNTLYLQMNSLKAEDTAVYYCARDQDYDILTGYYKEDYFDFWGQGTLVTVSSGGGGSGGGGSGGGGSGGGGSSYELTQPPSVSVSPGQTARITCSGDALPKKYAYWYQQKSGQAPVLVIYEDSKRPSGIPERFSGSSSGTMATLTISGAQVEDEADYYCYSTDSSGNRVFGCGTKLTVL

EC50 of CD137 signaling (NFKB-luc, Jurkat reporter cells with target cells) [1]: 0.049 nM
B7: 1925Ab3 (bispecific antibody, human IgG1, kappa, L234A L235A)
heavy: not shown
light: B5 light

binding result (human Nectin-4): binds
B8: 1925Ab4 (antibody, human IgG1, kappa, V domains shown)
VH: QVQLQQSGPELVKPGASVRISCKASGYTFTTYYIHWVKQRPGQGLEWIGWIYPGNVNTKYTENFKDKATLTADKSSSTAYMQLSSLTSEDSAVYFCARGLYYFDFWGQGTTLTVSS
VL: SIVMTQTPKFLLVSAGDRVTITCKASQSVNNDVAWYQQKPGQSPKLLIYYASNRDTGVPDRFTGSGFGTDFTFTISSVQAEDLAVYFCQQDYSSPYTFGGGTKLEIKR
notes: Parental murine anti-Nectin-4 antibody; also called parental murine monoclonal antibody; monospecific anti-Nectin-4 control antibody
